We go through ten molecules from patent publication US20220096654A1, “PYRROLOBENZODIAZEPINE-ANTIBODY CONJUGATES AND USES THEREOF” (ADC THERAPEUTICS SA, priority 2020, published 2022).

Test in all cases: cell-based or functional assay
Experiment [1] deals with T1, human CD45 (human, UniProt P08575 26-1306).
T1 sequence: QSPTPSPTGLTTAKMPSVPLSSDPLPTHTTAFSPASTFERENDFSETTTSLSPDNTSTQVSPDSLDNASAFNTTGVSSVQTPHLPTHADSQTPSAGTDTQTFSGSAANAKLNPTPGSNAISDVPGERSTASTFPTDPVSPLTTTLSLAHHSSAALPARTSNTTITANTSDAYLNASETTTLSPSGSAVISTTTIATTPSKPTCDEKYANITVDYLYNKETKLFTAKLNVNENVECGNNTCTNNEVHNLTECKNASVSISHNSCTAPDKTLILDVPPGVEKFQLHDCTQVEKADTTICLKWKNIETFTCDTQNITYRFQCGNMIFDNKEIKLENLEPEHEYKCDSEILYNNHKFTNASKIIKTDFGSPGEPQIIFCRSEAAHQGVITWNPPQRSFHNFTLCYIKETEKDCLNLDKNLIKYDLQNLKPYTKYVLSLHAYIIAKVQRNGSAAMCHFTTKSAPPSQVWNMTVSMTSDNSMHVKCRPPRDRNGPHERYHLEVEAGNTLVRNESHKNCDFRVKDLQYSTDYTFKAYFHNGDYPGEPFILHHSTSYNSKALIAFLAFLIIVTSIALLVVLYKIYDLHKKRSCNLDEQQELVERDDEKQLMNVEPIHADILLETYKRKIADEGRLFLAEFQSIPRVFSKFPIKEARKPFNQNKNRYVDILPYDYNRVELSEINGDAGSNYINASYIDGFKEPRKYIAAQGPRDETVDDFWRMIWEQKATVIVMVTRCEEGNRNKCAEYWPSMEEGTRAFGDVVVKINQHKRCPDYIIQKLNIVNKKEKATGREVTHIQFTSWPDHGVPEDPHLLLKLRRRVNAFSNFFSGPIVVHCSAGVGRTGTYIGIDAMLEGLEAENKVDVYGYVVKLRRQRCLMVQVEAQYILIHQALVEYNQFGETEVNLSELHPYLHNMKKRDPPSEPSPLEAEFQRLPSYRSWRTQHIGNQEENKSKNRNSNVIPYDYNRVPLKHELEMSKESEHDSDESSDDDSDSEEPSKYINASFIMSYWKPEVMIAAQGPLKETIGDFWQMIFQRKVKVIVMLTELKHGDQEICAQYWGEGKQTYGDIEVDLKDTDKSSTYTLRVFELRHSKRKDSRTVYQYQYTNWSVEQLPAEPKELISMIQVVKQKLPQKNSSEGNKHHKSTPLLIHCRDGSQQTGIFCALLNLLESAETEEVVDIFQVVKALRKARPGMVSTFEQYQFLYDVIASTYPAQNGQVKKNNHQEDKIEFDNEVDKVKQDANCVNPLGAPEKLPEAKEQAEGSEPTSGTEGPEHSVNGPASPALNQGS

Experiment [2] has as its target T1, human CD45. This is another data set of the same source.
In experiment [3] the target is T1, human CD45. The source holds these as a separate data set.

B1: YTH54.12-hIgG1-AAA-PBD (antibody, DAR 2.10, V domains shown)
VH: EVQLVESGGGLVQPGGSMKLSCAASGFTFSDYYMAWVRQAPKKGLEWVASMSFAGSSTYYGDSVKGRFTISRDNAKTTLYLQMNSLRSEDTATYYCARMYTTDYYLYWYFDFWGPGTMVTVSS
VL: DVQMTQSPSYLAASPGESVSISCKASKSISNYLAWYQQKPGEANKILIYSGSTLQSGTPSRFSGSGSGTDFSLTIRNLEPEDFAVYYCQQYDEKPLTFGSGTKLEIK
On to B1, for which, in the experiment with human CD45 [1], the “EC50, clonogenic assay, CD34+ PBSC (CD45+)” value (shortened to “EC50 … CD34+ PBSC (CD45+)”) turned out to be 6.4 pM; the “EC50, viability assay, Jurkat (CD45+), 72 h” value (shortened to “EC50 … Jurkat (CD45+), 72 h”) worked out at 18 pM; the “EC50, viability assay, OCIM1 (CD45+), 72 h” value (“EC50 … OCIM1 (CD45+), 72 h” below) is 9.7 pM.

B2: YTH54.12-B2 (antibody, V domains shown)
VH: EVQLVESGGGLVQPGGSMKLSCAASGFTFSDYYMAWVRQAPKKGLEWVASMSFAGSSTYYGDSVKGRFTISRDNAKTTLYLQMNSLRSEDTATYYCARMYTTDYYLYWYFDFWGPGTMVTVSS
VL: DVQMTQSPSYLAASPGESVSISCKASKSISNYLAWYQQKPGEANKILIYSGSTLQSGTPSRFSGSGSGTDFSLTIRNLEPEDFAVYYCQQYDEKPLTFGSGTKLEIKR
modifications: PBD drug-linker B2 conjugated; sites and DAR not stated
As to B2, in the experiment with human CD45 [2], the “Average EC50, viability assay, Jurkat (CD45+), 5 days” value (“Average EC50, viability assay, Jurkat” for short) turned out to be 2.43 pM and the “Average EC50, viability assay, OCIM1 (CD45+), 5 days” value (“Average EC50, viability assay, OCIM1” for short) turned out to be 0.58 pM. Also, in the experiment with human CD45 [3], the “Average EC50, clonogenic assay, primary human CD34+ cells” value (“Average EC50, clonogenic assay” below) was 23.9 pM.

B3: YTH54.12-rat IgG2b-PBD (drug-linker B1) (antibody, V domains shown)
VH: EVQLVESGGGLVQPGGSMKLSCAASGFTFSDYYMAWVRQAPKKGLEWVASMSFAGSSTYYGDSVKGRFTISRDNAKTTLYLQMNSLRSEDTATYYCARMYTTDYYLYWYFDFWGPGTMVTVSS
VL: DVQMTQSPSYLAASPGESVSISCKASKSISNYLAWYQQKPGEANKILIYSGSTLQSGTPSRFSGSGSGTDFSLTIRNLEPEDFAVYYCQQYDEKPLTFGSGTKLEIKR
modifications: PBD dimer drug-linker B1; light chains unconjugated or attached to a single molecule of B1; sites not given; PBD dimer drug-linker B1 conjugated after TCEP reduction; heavy chains attached to up to five molecules of B1; sites not given; DAR 1.90 (preparation) / 2.00
In the case of B3, in the experiment with human CD45 [2], the “Average EC50, viability assay, Jurkat” value amounted to 0.127 pM and the “Average EC50, viability assay, OCIM1” value was determined as 0.039 pM. Besides, the “Average EC50, clonogenic assay” value with human CD45 [3] worked out at 1.52 pM. Further, in the experiment with human CD45 [1], the “EC50 … CD34+ PBSC (CD45+)” value came to 23 pM; the “EC50 … Jurkat (CD45+), 72 h” value was 4.44 pM; the “EC50 … OCIM1 (CD45+), 72 h” value amounted to 1.89 pM.

B4: YTH54.12-B7 (antibody, V domains shown)
VH: EVQLVESGGGLVQPGGSMKLSCAASGFTFSDYYMAWVRQAPKKGLEWVASMSFAGSSTYYGDSVKGRFTISRDNAKTTLYLQMNSLRSEDTATYYCARMYTTDYYLYWYFDFWGPGTMVTVSS
VL: DVQMTQSPSYLAASPGESVSISCKASKSISNYLAWYQQKPGEANKILIYSGSTLQSGTPSRFSGSGSGTDFSLTIRNLEPEDFAVYYCQQYDEKPLTFGSGTKLEIKR
modifications: PBD drug-linker B7 conjugated; sites and DAR not stated
On to B4, for which, in the experiment with human CD45 [2], the “Average EC50, viability assay, Jurkat” value is 4.79 pM and the “Average EC50, viability assay, OCIM1” value was 1.07 pM. In addition, the “Average EC50, clonogenic assay” value in the experiment with human CD45 [3] was determined as 45.1 pM.

B5: YTH54.12-B4 (antibody, V domains shown)
VH: EVQLVESGGGLVQPGGSMKLSCAASGFTFSDYYMAWVRQAPKKGLEWVASMSFAGSSTYYGDSVKGRFTISRDNAKTTLYLQMNSLRSEDTATYYCARMYTTDYYLYWYFDFWGPGTMVTVSS
VL: DVQMTQSPSYLAASPGESVSISCKASKSISNYLAWYQQKPGEANKILIYSGSTLQSGTPSRFSGSGSGTDFSLTIRNLEPEDFAVYYCQQYDEKPLTFGSGTKLEIKR
modifications: PBD drug-linker B4 (non-cleavable) conjugated; sites and DAR not stated
As for B5, in the experiment with human CD45 [2], the “Average EC50, viability assay, Jurkat” value was determined as 0.091 pM and the “Average EC50, viability assay, OCIM1” value amounted to 0.22 pM. For the same molecule, in the experiment with human CD45 [3], the “Average EC50, clonogenic assay” value turned out to be 4.47 pM.

B6: YTH24.5-rat IgG2b-PBD (drug-linker B1) (antibody, V domains shown)
VH: QVNLLQSGAALVKPGASVKLSCKASSYTFTDYYIHWVKQSHGKTLEWIGYINPKSGFTNYNEKFRRKATLTVDKSTNTAYMDISRLTSEDSATYYCTRRTGVIPMDAWGQGASVTVSS
VL: DVVMTQTPVSLSVSLGGQVSISCRSSQSFVSSDGNTYLNWYLQKPGQSPQLLIYKVSNRLSGVPDRFSGSGSGTDFTLKISRVEHDDLGVYYCGQASKIPLTFGSGTKLEIKR
modifications: PBD dimer drug-linker B1; light chains unconjugated or attached to a single molecule of B1; sites not given; PBD dimer drug-linker B1 conjugated after TCEP reduction; heavy chains attached to up to five molecules of B1; sites not given; DAR 1.94 (preparation) / 2.00
Regarding B6, in the experiment with human CD45 [2], the “Average EC50, viability assay, Jurkat” value is 0.213 pM and the “Average EC50, viability assay, OCIM1” value came out at 0.03 pM. Further, the “Average EC50, clonogenic assay” value with human CD45 [3] is 2.64 pM. In the experiment with human CD45 [1], the “EC50 … CD34+ PBSC (CD45+)” value worked out at 16.5 pM; the “EC50 … Jurkat (CD45+), 72 h” value was 5.36 pM; the “EC50 … OCIM1 (CD45+), 72 h” value was 1.38 pM.

B7: YTH24.5-hIgG1-AAA-PBD (antibody, DAR 2.08, V domains shown)
VH: QVNLLQSGAALVKPGASVKLSCKASSYTFTDYYIHWVKQSHGKTLEWIGYINPKSGFTNYNEKFRRKATLTVDKSTNTAYMDISRLTSEDSATYYCTRRTGVIPMDAWGQGASVTVSS
VL: DVVMTQTPVSLSVSLGGQVSISCRSSQSFVSSDGNTYLNWYLQKPGQSPQLLIYKVSNRLSGVPDRFSGSGSGTDFTLKISRVEHDDLGVYYCGQASKIPLTFGSGTKLEIK
For B7, in the experiment with human CD45 [1], the “EC50 … CD34+ PBSC (CD45+)” value was determined as 7.9 pM; the “EC50 … Jurkat (CD45+), 72 h” value was 23 pM; the “EC50 … OCIM1 (CD45+), 72 h” value amounted to 6.8 pM.

B8: YTH24.5-B7 (antibody, V domains shown)
VH: QVNLLQSGAALVKPGASVKLSCKASSYTFTDYYIHWVKQSHGKTLEWIGYINPKSGFTNYNEKFRRKATLTVDKSTNTAYMDISRLTSEDSATYYCTRRTGVIPMDAWGQGASVTVSS
VL: DVVMTQTPVSLSVSLGGQVSISCRSSQSFVSSDGNTYLNWYLQKPGQSPQLLIYKVSNRLSGVPDRFSGSGSGTDFTLKISRVEHDDLGVYYCGQASKIPLTFGSGTKLEIKR
modifications: PBD drug-linker B7 conjugated; sites and DAR not stated
Consider B8, for which, in the experiment with human CD45 [2], the “Average EC50, viability assay, Jurkat” value worked out at 8.4 pM and the “Average EC50, viability assay, OCIM1” value is 2.18 pM. In addition, in the experiment with human CD45 [3], the “Average EC50, clonogenic assay” value is 35.5 pM.

B9: YTH24.5-B2 (antibody, V domains shown)
VH: QVNLLQSGAALVKPGASVKLSCKASSYTFTDYYIHWVKQSHGKTLEWIGYINPKSGFTNYNEKFRRKATLTVDKSTNTAYMDISRLTSEDSATYYCTRRTGVIPMDAWGQGASVTVSS
VL: DVVMTQTPVSLSVSLGGQVSISCRSSQSFVSSDGNTYLNWYLQKPGQSPQLLIYKVSNRLSGVPDRFSGSGSGTDFTLKISRVEHDDLGVYYCGQASKIPLTFGSGTKLEIKR
modifications: PBD drug-linker B2 conjugated; sites and DAR not stated
Turning to B9, in the experiment with human CD45 [2], the “Average EC50, viability assay, Jurkat” value was 2.12 pM and the “Average EC50, viability assay, OCIM1” value was 0.025 pM. The “Average EC50, clonogenic assay” value with human CD45 [3] was determined as 32.7 pM.

B10: YTH24.5-B4 (antibody, V domains shown)
VH: QVNLLQSGAALVKPGASVKLSCKASSYTFTDYYIHWVKQSHGKTLEWIGYINPKSGFTNYNEKFRRKATLTVDKSTNTAYMDISRLTSEDSATYYCTRRTGVIPMDAWGQGASVTVSS
VL: DVVMTQTPVSLSVSLGGQVSISCRSSQSFVSSDGNTYLNWYLQKPGQSPQLLIYKVSNRLSGVPDRFSGSGSGTDFTLKISRVEHDDLGVYYCGQASKIPLTFGSGTKLEIKR
modifications: PBD drug-linker B4 (non-cleavable) conjugated; sites and DAR not stated
Consider B10, for which, in the experiment with human CD45 [2], the “Average EC50, viability assay, Jurkat” value was determined as 0.052 pM and the “Average EC50, viability assay, OCIM1” value amounted to 0.096 pM. Also, the “Average EC50, clonogenic assay” value with human CD45 [3] was 4.92 pM.
